Test results: patent US7125658B2, “Small protein that interacts with a ribonucleotide reductase subunit and uses thereof” (The Trustees of Columbia University in the City of New York, priority 1998, dated 2006)

T1: Recombinant mouse ribonucleotide reductase R1 protein (mouse, UniProt P07742 1-792)
T1 construct: also called mouse R1 protein
T1 sequence (looked up): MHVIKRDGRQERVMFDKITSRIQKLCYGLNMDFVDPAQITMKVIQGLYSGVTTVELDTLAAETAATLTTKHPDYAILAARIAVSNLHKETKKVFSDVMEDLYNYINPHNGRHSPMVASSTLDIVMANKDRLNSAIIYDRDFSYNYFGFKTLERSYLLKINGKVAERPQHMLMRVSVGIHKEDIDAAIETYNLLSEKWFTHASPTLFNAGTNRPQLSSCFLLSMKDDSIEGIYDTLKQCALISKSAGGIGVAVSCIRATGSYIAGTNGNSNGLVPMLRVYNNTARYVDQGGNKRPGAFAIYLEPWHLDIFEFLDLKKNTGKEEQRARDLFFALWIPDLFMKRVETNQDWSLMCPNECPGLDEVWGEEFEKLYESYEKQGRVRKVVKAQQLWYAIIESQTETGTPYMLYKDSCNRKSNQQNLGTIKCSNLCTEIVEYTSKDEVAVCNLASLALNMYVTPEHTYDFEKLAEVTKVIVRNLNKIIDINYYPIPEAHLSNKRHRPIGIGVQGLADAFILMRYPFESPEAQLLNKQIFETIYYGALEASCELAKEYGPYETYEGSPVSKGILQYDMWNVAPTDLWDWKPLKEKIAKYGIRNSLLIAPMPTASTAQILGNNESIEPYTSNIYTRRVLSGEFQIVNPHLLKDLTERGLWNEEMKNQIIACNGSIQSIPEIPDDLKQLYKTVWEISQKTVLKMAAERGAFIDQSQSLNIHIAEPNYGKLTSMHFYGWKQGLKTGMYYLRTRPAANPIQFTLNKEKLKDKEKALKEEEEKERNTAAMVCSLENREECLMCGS

T2: Recombinant yeast Rnr1 protein (large subunit of ribonucleotide reductase) (yeast (Saccharomyces cerevisiae), UniProt P21524 1-888)
T2 sequence (looked up): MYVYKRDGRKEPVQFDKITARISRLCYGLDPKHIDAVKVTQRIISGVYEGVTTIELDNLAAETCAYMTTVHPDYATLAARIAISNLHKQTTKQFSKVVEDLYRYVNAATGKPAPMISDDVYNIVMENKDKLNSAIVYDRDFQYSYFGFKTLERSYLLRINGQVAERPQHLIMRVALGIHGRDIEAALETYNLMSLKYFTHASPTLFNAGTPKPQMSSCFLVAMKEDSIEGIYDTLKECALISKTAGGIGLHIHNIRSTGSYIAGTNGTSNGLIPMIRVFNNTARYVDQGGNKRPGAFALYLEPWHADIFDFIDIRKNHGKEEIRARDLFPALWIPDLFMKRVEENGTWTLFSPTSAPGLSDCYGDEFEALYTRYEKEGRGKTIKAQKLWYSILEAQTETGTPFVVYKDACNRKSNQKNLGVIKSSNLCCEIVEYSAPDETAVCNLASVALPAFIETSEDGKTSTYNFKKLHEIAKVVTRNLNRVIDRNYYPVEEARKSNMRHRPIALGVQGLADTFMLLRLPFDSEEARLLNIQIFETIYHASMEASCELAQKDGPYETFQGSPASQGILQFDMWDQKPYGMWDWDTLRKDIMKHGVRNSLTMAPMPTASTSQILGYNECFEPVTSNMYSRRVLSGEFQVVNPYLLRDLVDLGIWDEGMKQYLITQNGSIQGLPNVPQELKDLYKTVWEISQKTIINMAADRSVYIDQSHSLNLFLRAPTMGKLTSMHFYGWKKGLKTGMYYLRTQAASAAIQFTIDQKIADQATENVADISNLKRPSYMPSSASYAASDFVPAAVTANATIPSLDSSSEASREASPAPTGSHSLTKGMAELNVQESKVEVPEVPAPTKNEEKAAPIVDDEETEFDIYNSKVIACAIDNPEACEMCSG

T3: mouse R1 protein (Mus musculus, UniProt P07742)
T3 construct: made in house; host or cells: E. coli BL21 (DE3)pLysS, pET3a
T3 sequence (P07742 1-792): T1 sequence (looked up)

B1: Recombinant yeast Sml1 protein (other)
chain: MQNSQDYFYAQNRCQQQQAPSTLRTVTMAEFRRVPLPPMAEVPMLSTQNSMGSSASASASSLEMWEKDLEERLNSIDHDMNNNKFGSGELKSMFNQGKVEEMDF
notes: Immobilized on the BIAcore chip in the biosensor experiments; also called YML058W product
B2: Sml1p: 104 amino acid yeast protein encoded by YML058w (SML1) that binds Rnr1 and inhibits ribonucleotide reductase; recombinant, expressed in E. coli (protein)
chain: B1 chain

Key:
[1] = biological target: T1, Recombinant mouse ribonucleotide …; assay: BIAcore biosensor, mouse R1 protein alone at 0.1 mg/ml over immobilized Sml1p, prolonged injection, bulk effect not subtracted
[2] = biological target: T2, Recombinant yeast Rnr1 protein (large …); assay: cell-based or functional assay
mouse R1 protein = biological target: T3, mouse R1 protein; assay: BIAcore biosensor analysis, immobilized Sml1p and mouse R1 protein; format: binding; details: not quantified
Method: FIG. 14 Sensorgram showing the interaction between immobilized Sml1p and the mouse R1 protein. […] Curve 3 showes the response with mouse R1 protein alone at 0.1 mg/ml passed over immobilized Sml1p. Note that the injection time for this curve is prolonged from 6 min to 14 min.
BIAcore biosensor analysis. The interaction between Sml1p and either yeast Rnr1p or mouse R1 protein was studied by biosensor analysis using the BIAcore method (Biacore AB). The Sml1 protein was prepared in 10 mM sodium acetate, pH 5.2, at a concentration of 0.44 mg/ml; it was then immobilized on the dextran layer of the sensor chip as described previously for the mouse R2 protein (17). The ligand proteins were equilibrated with running buffer (10 mM Hepes-KOH, pH 7.4, 200 mM potassium acetate, 1 mM EDTA, 5 mM magnesium acetate and 0.05% Surfactant P20 (BIAcore). The interactions were studied at a constant temperature of 22° C. and a constant flow of 5 μl/min. Kinetics for the interaction of Sml1p with yeast Rnr1p was determined by allowing the immobilized Sml1p to interact with increasing concentrations of Rnr1p (18). The resonance unit (RU) is proportional to the mass, and 1 RU corresponds to a surface concentration of 1 pg of protein/mm^2 of the 100 nm thick dextran layer (19).
Kinetic studies of the interaction between the mouse RNR R1 protein and the Sml1 protein using a biosensor technique. […]

Molecule	binding result [1]	efficiency in inhibiting yeast RNR activity relative to the Sml1p C terminal nonapeptide, molar basis [2]	binding to mouse R1 protein (mouse R1 protein)
B1	binds	~200 times	
B2			high affinity
